Assay results as given in the DeepSol protein solubility set.

Assay: soluble on expression in E. coli; label from the status in PepcDB or PDB records

MASLSYPKTTMQIQLGANLKPYHTFGIEQLAAQLVVAESIDDLKALYCSAEWASLPKLIIGKGSNMLFTCHYTGMIVVNRLNGIEHQQDDDYHRLHVAGGEDWPSLVSWCVEQGIGGLENLALIPGCAGSAPIQNIGAYGVEFKDVCDYVEYLCLETGTVKRLTMEECQFGYRDSIFKHQLYQKAVVTAVGLKFAKAWQPIIQYGPLKDLSSDCAIHDVYQRVCATRMEKLPDPAVMGNAGSFFKNPVISQQAFARLQIEHPDVVAYPAEQGVKVAAGWLIDQAGLKGHQIGGAKVHPKQALVIVNTGDASAQDVLMLAADIQQRVFNCYGIELEHEVRFIGESEETNLKQWMSEQA
soluble on expression in E. coli: soluble

MGSDKIHHHHHHMLWFKNLMIYRLSQDSVLSKDNVLSTDEMEKRLSAFAFTPCGSQDMMKTGWVSPMGSHSDALTHVVNGQIVICVRKEEKILPSPVIKQTLQAKIERLEAEQHRKLKKTEKDSLKDEVLHSLLPRAFSRLSQVWLWIDTVNGLIMVDAASAKKAEDTLALLRKTLGSLPVVPLTMENPIELTLTEWVRSGEPAAGFALQDEAELKAILEDGGVIRCKKQDLVCDEIAVHIEAGKLVTKLALDWQERIQLILSDDGSVKRLKFSDTLREQNDDIDREDFAQRFDADFILMTSELAALIANLIEALGGEAQR
soluble on expression in E. coli: not soluble

MGSDKIHHHHHHMSEKNQQSADLMARQYFLHLGAHRTGSSSFQLCLHENRAALANAGYGVAFPARDGIRAGQLALRLPQPRHDAEAETRMAETARQHLTQDIAPAPDQKVLLSEENILGSMSHFQQALFYPASAKRLRALRQAMEGPAAAVLLVVRDYGPFFRSCIRKRMEETIVTDFEGAVSAYLAMDRGWLEVLREVRDILEPAKLIVARHEDRPKRVDLLRELAPDLAQVALMQPSTSLNISATDRALSALQARYATGEKLSRKAWRATLAEWRDDATPMGLTEFTPRELRAFSMRYERDLSDIAKEPGLTLI
soluble on expression in E. coli: not soluble

MKVYLHFSPQFFANTYLIGNEITKEAVIIDPAKITEKMIHQIEKNEFNLKAVLLTHDLEHPYETGLNTILKIYSPKVYAGSCFSENVTINTLRGDGCIDVAGYSVRYFAIPAHSSYSYMFQIENMVFTGTSLSAGMIGQTSNMYAERTLRNILKTKLMCFEDNLIIMPFYGPPTSIGVERKYNASFFQDLEHHHHHH
soluble on expression in E. coli: not soluble

MFEKGYVDENYIRVPKDRLFSFIVRVLTKLGVPEEDAKIVADNLVMADLRGVESHGVQRLKRYVDGIISGGVNLHPKIRVIREGPSYALIDGDEGLGQVVGYRSMKLAIKKAKDTGIGIVIARNSNHYGIAGYYALMAAEEGMIGISMTNSRPLVAPTGGIERILGTNPIALAAPTKDKPFLLDMATSVVPIGKLEVYRRKGKDIPEGWAINREGNITTKVEEVFNGGALLPLGGFGELLGGHKGYGLSLMVDILSGILSGGTWSKYVKNTSEKGSNVCHFFMVIDIEHFIPLEEFKEKISQMIEEIKSSRKHPEFERIWIHGEKGFLTMETRLKLGIPIYRKVLEELNEIAKRVGVEGL
soluble on expression in E. coli: soluble

MSLLKADGMAKKQTLLVGERLVWDKLTLLGFLEKNHIPQKLYYNLSSQDKELSAEIQSNVTYYTLRDANNTLIQALIPISQDLQIHIYKKGEDYFLDFIPIVFTRKERTLLLSLQTSPYQDIVKATNDPLLANQLMNAYKKSVPFKRLVKNDKIAIVYTRDYRVGQAFGQPTIKMAMVSSRLHQYYLFSHSNGRYYDSKAQEVAGFLLETPVKYTRISSPFSYGRFHPVLKVKRPHYGVDYAAKHGSLIHSASDGRVGFIGVKAGYGKVVEIHLNELRLVYAHMSAFANGLKKGSFVKKGQIIGRVGSTGLSTGPHLHFGVYKNSRPINPLGYIRTAKSKLHGKQREVFLEKAQYSKQKLEELFKTHSFEKNSFYLLEGFEGHHHHHH
soluble on expression in E. coli: soluble

GQDQRRRRIVSRRIYKRIMLKPHYLSIPEAQLEAMNNIQLNPIMKLINNNSDSPVMLSSPPDIFTAGKDMFDCFFRDIEAARHHVHIQFYVIEDDHLGSRLSDLLIRKVQEGVKVRVIFDHVGSWATGRGYWKRLRRAGVEAYPFMPVFFPILSSRVNYRNHRKVAVIDGKIGYLGGMNVADRYYSGNRLGLWRDTHFRMMGNVVAGLQSSFLLDWYVVSRRVINLSGYYPDLPIPVSDEGVKIQLVRSGPVGQWRTIEQATIYCIERACEHVYIETPYFLPTEGLN
soluble on expression in E. coli: not soluble

LGSMESTQQMAVSIINSSFEAAVVAATSALENMGIEYDYQDIYSRVKNKFDFVMDDSGVKNNPIGKAITIDQALNNKFGSAIRNRNWLADTSRPAKLDEDVNKLRMMLSSKGIDQKMRVLNACFSVKRIPGKSSSIIKCTKLMRDKLERGEVEVDDSFVDEKME
soluble on expression in E. coli: soluble

MGSDKIHHHHHHMEPIVRLENVTKNYRGVPAVKNVSFDLRKGEIHALLGENGAGKSTLTKIIAGVVDATSGKMFHKGREIAYASPHAALEAGIAMVFQETSLVPSMTVAQNLYLGTEKFLNRLRGTYIAAQQFLQSLNFPVDPNAMVATLGAAKRQMVEIARAVHHNAEIIIFDEPTATLTPEEKRHFFALIRRLKASGVSIVFISHALEEALAIADRITILRDGELVITDDTSAFDRDKIVAAMVGRTLSGQIYRQRDEARLRKAGKKVLSVQDISMSNVVRNNSFSIFEGQITGVFGLIGSGRTETFKIVSGIYKRDFLRGGAIELDDRPVRYLVPSEAVADGIVYVTEDRKSEGIFETMGIAENLFGGLLAAGREKAWVINQQEMRQLSAQWTKTLNIKAINDNARVVELSGGNQQKVVIGKGLVQQPRIVIFDEPTRGVDVGAIAEIHQIINRLADEGLAVVVISSYLPEIMNLSDRILVCRQGRIVEEYSPAEATEEKIMYAAVH
soluble on expression in E. coli: not soluble

MGHHHHHAYTLSKSGKEKEEVDEILEEEAEVDELKSPESVVQLLHIDPIEFEFGYGLIPLADANQGGDLLDRIVMIRRQLALELGLVIPVVRIRDNIALQPNEYRLKIKGNEVAKGELLLDHYLAMSPTPEDDLIEGIETVEPSFGLPAKWISEAVKDEADMLGYTVVDPASVVSTHITEKIKQHAHELIGRQETKQLIDHLKESYPVLVEEVTPNPLSVGDIQKVLAKLLKEKVSIRNLVTIFETLADYGKLTTDSDLLTEYTRQALAKQITAQFAKENEVLKVVTCSGRVEKAIADGVQQTEHGNYLSLEPDISESIVRSVAKEAEQLSLRQETAILLCSPPVRMYVKQLLERYFPDLPVLSYNELEANVEVQSIGVVDI
soluble on expression in E. coli: soluble

MSLATIATLRVLLLAIPDDAAPESDLNLVSWTILNGLRRECERRGIRIVPFVSTGRRIDGAQVRQMALAERADGIVVLNDDQPELIRSLASPDMPVVIVNGEDPAMLVDTVTPENRFGARLGIEHLLALGHRRILHLTWKGRTTIQRRYDGFSDAYLAAQLPVPDNMVVEAEGYEPRHGEAAINALLDRDATVKGATAVFCAADNMALGCLKALADRDIRVPEAISVLGFDDIVPGEFSRPPLSTVSVPTDKLGAAALALIEQRLIANDPQRPAHRLELGCHLVLRGSEGHHHHHH
soluble on expression in E. coli: not soluble

SVLLQMTQRLALSDAHFRRICQLIYQRAGIVLADHKRDMVYNRLVRRLRALGLDDFGRYLSMLEANQNSAEWQAFINALTTNLTAFFREAHHFPILAEHARRRHGEYRVWSAAASTGEEPYSIAITLADALGMAPGRWKVFASDIDTEVLEKARSGIYRLSELKTLSPQQLQRYFMRGTGPHEGLVRVRQELANYVEFSSVNLLEKQYNVPGPFDAIFCRNVMIYFDKTTQEDILRRFVPLLKPDGLLFAGHSENFSNLVREFSLRGQTVYALS
soluble on expression in E. coli: soluble

VIRRSSLSSTESEIRMDATTVSTTDDIWSPSWDDPFEPTTDHDDEFAELTDALRAVQEAVTRSRPTPEAAGRAARTLRDLAARLAAFEVGEDEQISGRRWDLAGRGQTLTPALHLDEVTENRARGHVVVGRFHSGRYAMNGGVTPLIFDEILARLANSCGRPWARTAYLHVNYRAPAPLDVELRVEAEFAGQDGRKRFMRGAMYHGDVLVADVEGLWIELKPEQTQNVSLAVGWGAEENS
soluble on expression in E. coli: not soluble

MSSNDSSLMAGIIYYSQEKYFHHVQQAAAVGLEKFSNDPVLKFFKAYGVLKEEHIQDAISDLESIRHHPDVSLCSTMALIYAHKRCEIIDQEAIQELEYSLKEIRKTLSGTALYYAGLFLWLIGRHDKAKEYIDRMLKISRGFREAYVLRGWVDLTSDKPHTAKKAIEYLEQGIQDTKDVLGLMGKAMYFMMQQNYSEALEVVNQITVTSGSFLPALVLKMQLFLARQDWEQTVEMGHRILEKDESNIDACQILTVHELAREGNMTTVSSLKTQKVILETESRRNPS
soluble on expression in E. coli: not soluble

GIPRNSRVDSDDFLWFEGIAFPTMGFRSETLRKVRDEFVIRDEDVIILTYPKSGTNWLAEILCLMHSKGDAKWIQSVPIWERSPWVESEIGYTALSETESPRLFSSHLPIQLFPKSFFSSKAKVIYLMRNPRDVLVSGYFFWKNMKFLKKPKSWEEYFEWFCQGTVLYGSWFDHIHGWMPMREEKNFLLLSYEELKQDTGRTIEKICQFLGKTLEPEELNLILKNSSFQSMKENKMSNYSLLSVDYVVDKTQLLRKGVSGDWKNHFTVAQAEDFDKLFQEKMADLPRELFPWE
soluble on expression in E. coli: soluble

MWTNTFQEGLKIVGENISLSLPDGRQELFRLTDGAISSDATTGTLSKDQAGWRYDYRDGTSSLFDVQGRLIQRKVRGQVITITYPNLSTTKAKDGFGNTLTVSWNATKQPYLVDYNGSLKVEYLYDGGARLVSKKTTSQGLNRTRKYLYADSGNAGLMVGIIDEQGTRYATWTYDNQGRAISSEHANGAEKVSLAYNDDGSTTVTNEYGKQATYRFQVIQGIKRIVAIEGQPSPNCPSSNSTFTYDDQGLLTSKRDNNGNLTTYQYNARGLETSRTEAAGTAQARTITTDWHPTLFLPVQVSEPGRITRYQYDAEGRKTGETVTTR
soluble on expression in E. coli: not soluble

MERMMLIAFDLEGTLTDMVSWELLHKKFETCGLAKKNAELFFSGRISYEEWAKLDASLWKGRRREEVEEVFKEVSLKDYAEELFRWLKEKGFKTAIITGGLMCLAKKVAEKLNPDYVYANELVFNEKGEITGDVIVRVTFDNKGEILERLKRELNPTLTVAVGDWKNDLPMFEVADISISLGEDHADYLAKDLREVKKILKEVLLETEKL
soluble on expression in E. coli: soluble

MTEDNIAPITSVKRLVTDKCTYKDNELLTKYSYENAVVTKTASGRFDVTPTVQDYVFKLDFEKKPEKLGIMLIGLGGNNGSTLVASVLANKHNVEFQTKAKGVKQPNYFGSMTQCSTLKLGIDAEGNDVYAPFNSLLPMVSPKHFVVSGWDINNADLYEAMQRSQVLEYDLQQRLKAKMSLVKPLPSIYYPDFIAANQDERANQCINLDEKGNVTTRGKWTHLQRIRRDIQNFKEENALDKVIVLWTANTERYVEVSPGVNDTMENLLQSIKNDHEEIAPSTIFAAASILEGVPYINGSPQNTFVPGLVQLAEHEGTFIAGDDLKSGQTKLKSVLAQFLVDAGIKPVSIASYNHLGNNDGYNLSAPKQFRSKEISKSSVIDDIIASNDILYNDKLGKKVDHCIVIKYMKPVGDSKVAMDEYYSELMLGGHNRISIHNVCEDSLLATALIIDLLVMTEFCTRVSYKKVDPVKEDAGKFENFYPVLTFLSYWLKAPLTRPGFHPVNGLNKQRTALENFLRLLIGLPSQNELRFEERLL
soluble on expression in E. coli: soluble

MGSDKIHHHHHHMTINQEHLTDCKLCKAHSWELVATLISGIWDKRHDELNREELRFPIGQCTKCHHVQVAIPYTQSIFDSLYFSNQAEPDMWCETPNGQKSPYEEMLEFIAPYIQDGAHIVDFGAGAGTTLKHIENTHKERQLTLASVDFHNHIQSETIEYLSADLNKLEALQAEFVTQPISLAISTHVLEHLIDPIHFLTQIRSMLSDDGHIFIEVPDCSPDAFIEHLAFTNLVHGQHIHYYSKDSLAQIARLAGLKIDALQQLTTGDIPRLLILLSKTTQESSTTVLPVTSGADVAVVKRFNDYHAFQDSLFKQIQQALMLNDTIGIWGIGGDFYQLTQSYPELIDLIQANSIILYDYELAGHTYVGSSIRCSSAIASTRYPVFMLPLYAPTREKMHQVSQSWSAQVIDPF
soluble on expression in E. coli: not soluble
